Data: US20250313641A1 (Amgen, published 2025)
Residue numbers refer to the chain shown, from its start. Names may count otherwise.

T1: human IL-2 receptor (IL-2R) on human PBMC subsets (human, UniProt P14784 27-551; P31785 23-369)
T1 construct: Endogenous receptor on primary human CD4+ T cells, T-regs, CD8+ T cells and NK cells; also called IL-2Rβγ
T1 sequence 1: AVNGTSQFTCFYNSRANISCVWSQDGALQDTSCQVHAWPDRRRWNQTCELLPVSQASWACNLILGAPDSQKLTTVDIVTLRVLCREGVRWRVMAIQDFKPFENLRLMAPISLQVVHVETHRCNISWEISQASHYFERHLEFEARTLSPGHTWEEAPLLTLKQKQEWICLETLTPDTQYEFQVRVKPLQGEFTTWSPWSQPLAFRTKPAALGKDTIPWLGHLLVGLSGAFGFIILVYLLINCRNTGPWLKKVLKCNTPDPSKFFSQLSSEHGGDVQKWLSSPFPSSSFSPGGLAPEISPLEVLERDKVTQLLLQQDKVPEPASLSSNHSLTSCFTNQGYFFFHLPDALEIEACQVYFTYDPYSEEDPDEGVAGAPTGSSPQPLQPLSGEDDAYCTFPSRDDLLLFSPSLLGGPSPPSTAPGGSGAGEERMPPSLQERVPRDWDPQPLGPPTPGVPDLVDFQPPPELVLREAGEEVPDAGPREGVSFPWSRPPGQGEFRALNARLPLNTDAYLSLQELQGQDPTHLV
T1 sequence 2: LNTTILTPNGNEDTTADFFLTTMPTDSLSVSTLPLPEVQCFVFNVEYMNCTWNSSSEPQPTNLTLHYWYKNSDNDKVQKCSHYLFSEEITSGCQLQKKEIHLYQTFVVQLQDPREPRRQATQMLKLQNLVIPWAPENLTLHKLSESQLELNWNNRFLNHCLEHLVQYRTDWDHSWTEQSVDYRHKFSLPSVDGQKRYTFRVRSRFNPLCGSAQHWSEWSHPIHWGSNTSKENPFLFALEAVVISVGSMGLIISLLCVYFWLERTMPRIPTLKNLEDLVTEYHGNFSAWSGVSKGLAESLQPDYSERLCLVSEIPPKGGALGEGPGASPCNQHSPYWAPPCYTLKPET

T2: cynomolgus monkey IL-2 receptor (IL-2R) on cyno PBMC subsets (cynomolgus monkey, UniProt Q38J85 27-551; A0A2K5VGJ6 23-369)
T2 sequence (looked up) 1: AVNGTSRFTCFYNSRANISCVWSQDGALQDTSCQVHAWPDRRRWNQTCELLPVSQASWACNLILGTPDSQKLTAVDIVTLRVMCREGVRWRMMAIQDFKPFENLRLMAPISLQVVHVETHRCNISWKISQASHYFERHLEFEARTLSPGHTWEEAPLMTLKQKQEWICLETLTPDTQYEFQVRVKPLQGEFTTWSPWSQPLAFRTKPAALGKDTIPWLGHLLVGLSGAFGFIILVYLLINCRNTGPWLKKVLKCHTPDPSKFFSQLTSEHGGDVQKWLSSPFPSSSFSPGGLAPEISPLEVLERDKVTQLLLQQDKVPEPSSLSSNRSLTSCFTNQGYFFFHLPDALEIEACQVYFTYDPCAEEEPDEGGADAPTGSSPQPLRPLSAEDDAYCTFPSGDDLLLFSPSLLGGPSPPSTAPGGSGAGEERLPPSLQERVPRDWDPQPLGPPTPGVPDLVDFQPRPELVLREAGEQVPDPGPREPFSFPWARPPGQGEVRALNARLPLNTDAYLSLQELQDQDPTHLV
T2 sequence (looked up) 2: T1 sequence 2 with T14A, A16T, T22S, H141R, T228S, A326P

B1: HCAb1 (bispecific antibody, IgG1)
heavy 1: not shown
heavy 2: QVQLVESGGGLVKPGGSLRLSCAASGFTFSDYYMSWIRQAPGKGLEWVSYISSSGSTIYYADSVKGRFTISRDNAKNSLYLQMNSLRAEDTAVYYCARGDAVSITGDYRGQGTLVTVSSGGGGDKTHTCPPCPAPELLGGPSVFLFPPKPKDTLMISRTPEVTCVVVDVSHEDPEVKFNWYVDGVEVHNAKTKPCEEQYGSTYRCVSVLTVLHQDWLNGKEYKCKVSNKALPAPIEKTISKAKGQPREPQVYTLPPSRKEMTKNQVSLTCLVKGFYPSDIAVEWESNGQPENNYKTTPPVLKSDGSFFLYSKLTVDKSRWQQGNVFSCSVMHEALHNHYTQKSLSLSPGK
notes: Heavy-chain antibody without light chains, made of two different heavy chains; The IgG1-derived Fc carries SEFL2.2 mutations (R292C, N297G, V302C) and charge-pair substitutions; also called anti-IL2RBG heavy-chain antibody
B2: HCAb2 (bispecific antibody, human IgG4 S228P, F234A L235A)
heavy 1: QVQLQESSPGLVKPSETLSLTCTVSGGSISSSNWWSWVRQPPGKGLEWIGEISHSGSTNYNPSLKSRVTISVDKSKNQFSLRLSSVTAADTAVYFCGRGSWELTDAFDIRGQGTLVTVSSESKYGPPCPPCPAPEAAGGPSVFLFPPKPKDTLMISRTPEVTCVVVDVSQEDPEVQFNWYVDGVEVHNAKTKPREEQFNSTYRVVSVLTVLHQDWLNGKEYKCKVSNKGLPSSIEKTISKAKGQPREPQVYTLPPSQEEMTKNQVSLSCAVKGFYPSDIAVEWESNGQPENNYKTTPPVLDSDGSFFLVSRLTVDKSRWQEGNVFSCSVMHEALHNHYTQKSLSLSLGK
heavy 2: QVQLVESGGGLVKPGGSLRLSCAASGFTFSDYYMSWIRQAPGKGLEWVSYISSSGSTIYYADSVKGRFTISRDNAKNSLYLQMNSLRAEDTAVYYCARGDAVSITGDYRGQGTLVTVSSESKYGPPCPPCPAPEAAGGPSVFLFPPKPKDTLMISRTPEVTCVVVDVSQEDPEVQFNWYVDGVEVHNAKTKPREEQFNSTYRVVSVLTVLHQDWLNGKEYKCKVSNKGLPSSIEKTISKAKGQPREPQVYTLPPSQEEMTKNQVSLWCLVKGFYPSDIAVEWESNGQPENNYKTTPPVLDSDGSFFLYSRLTVDKSRWQEGNVFSCSVMHEALHNHYTQKSLSLSLGK

Legend:
[1] = target: T1, human IL-2 receptor (IL-2R) on human …; assay: Flow cytometry on human PBMCs gated on CD8+ T-cells; detection with goat F(ab')2 anti-human IgG-PE; gMFI as fold over background
Method: (§1) All washes and dilutions of cells, antibodies, and reagents were performed using flow buffer (1×PBS, 1% BSA, 0.1% NaN3, pH 7.4). All incubations were performed at 4° C. or on ice. Freshly thawed PBMCs were seeded at 100,000 cells/well in a 96-well round bottom plate (Corning) and incubated for 30 minutes with serially diluted test articles in a total volume of 50 μL. Cells were washed twice with 200 μL flow buffer and subsequently stained with a 0.625 μg/mL Goat F (ab′) 2 Anti-Human IgG-PE (Southern Biotech) secondary detection antibody. Fluorescently conjugated anti-CD3 (OKT3), CD4 (OKT4), CD8 (RPA-T8), CD25 (M-A251), CD127 (A019D5), and CD56 (HCD56) antibodies (BioLegend) were also included at 1:20 dilution to enable the characterization of T-cell and NK cell populations. Following a 30-minute incubation, and 2 more washes, the cells were resuspended in a final volume of 120 μL of flow buffer containing 7-AAD viability dye. The cells were analyzed on a BD FACSCelesta™, maximum events were collected, and geometric mean fluorescence intensity was plotted as a fold-over-background (cells incubated with secondary detection antibody and cell lineage marker stains only).
(§2) Cell binding was determined by flow cytometry and reported as geometric mean fluorescent intensity (gMFI) over the gMFI of cells stained only with secondary detection antibody.

[2] = target: T1, human IL-2 receptor (IL-2R) on human …; assay: cell-based or functional assay
[3] = target: T1, human IL-2 receptor (IL-2R) on human …; assay: cell-based or functional assay; remark: listed apart in the source
[4] = target: T2, cynomolgus monkey IL-2 receptor (IL-2R) …; assay: cell-based or functional assay
[5] = target: T2, cynomolgus monkey IL-2 receptor (IL-2R) …; assay: Flow cytometry on cynomolgus PBMCs gated on CD4+CD25+CD127lo T-regs; detection with anti-human IgG-PE; gMFI as fold over background
[6] = target: T1, human IL-2 receptor (IL-2R) on human …; assay: Flow cytometry on human PBMCs gated on CD3-CD56+ NK cells; detection with goat F(ab')2 anti-human IgG-PE; gMFI as fold over background
Method: as §1, §2

[7] = target: T1, human IL-2 receptor (IL-2R) on human …; assay: Flow cytometry on human PBMCs gated on CD4+CD25+CD127lo T-regs; detection with goat F(ab')2 anti-human IgG-PE; gMFI as fold over background
Method: as §1, §2

[8] = target: T1, human IL-2 receptor (IL-2R) on human …; assay: Flow cytometry on human PBMCs gated on CD4+ T-cells; detection with goat F(ab')2 anti-human IgG-PE; gMFI as fold over background
Method: as §1, §2

[9] = target: T1, human IL-2 receptor (IL-2R) on human …; assay: cell-based or functional assay; remark: listed apart in the source
[10] = target: T2, cynomolgus monkey IL-2 receptor (IL-2R) …; assay: cell-based or functional assay; remark: listed apart in the source
[11] = target: T1, human IL-2 receptor (IL-2R) on human …; assay: cell-based or functional assay; remark: listed apart in the source
[12] = target: T2, cynomolgus monkey IL-2 receptor (IL-2R) …; assay: Flow cytometry on cynomolgus PBMCs gated on CD3-CD159a+ NK cells; detection with anti-human IgG-PE; gMFI as fold over background

Binder | pSTAT5 (Human) EC50 [nM], CD4^+ T-cell [2] [nM] | pSTAT5 (Human) EC50 [nM], CD4^+CD25^+ T-regs [2] [nM] | pSTAT5 (Human) EC50 [nM], CD8^+ T-cell [2] [nM] | pSTAT5 (Cyno) EC50 [nM], CD4^+ T-cell [10] [nM] | pSTAT5 (Cyno) EC50 [nM], CD4^+CD25^+ T-regs [10] [nM] | pSTAT5 (Cyno) EC50 [nM], CD8^+ T-cell [10] [nM] | Ki67 (Human) EC50 [nM], CD4^+ T-cell [11] [nM] | Ki67 (Human) EC50 [nM], CD4^+CD25^+ T-regs [11] [nM] | Ki67 (Human) EC50 [nM], CD8^+ T-cell [11] [nM] | further results
B1 | 34.9 | 10.7 | 21.5 | 7.72 | 5.37 | 3.31 | 23.7 | 9.26 | 25.1 | EC50 (read off the curve) [1]: ~20 nM; pSTAT5 (Human) EC50 [nM], CD4^+ T cells [3]: 22.9 nM; pSTAT5 (Human) EC50 [nM], CD8^+ T cells [3]: 15.5 nM; pSTAT5 (Human) EC50 [nM], NK cells [3]: 8.77 nM; pSTAT5 (Human) EC50 [nM], T-regs [3]: 13.1 nM; Ki67 (Cyno) EC50 [nM], CD4^+ T cells [4]: 14.7 nM; Ki67 (Cyno) EC50 [nM], CD8^+ T cells [4]: 14.8 nM; Ki67 (Cyno) EC50 [nM], NK cells [4]: 5.97 nM; Ki67 (Cyno) EC50 [nM], T-regs [4]: 1.25 nM; EC50 (read off the curve) [5]: ~8 nM; EC50 (read off the curve) [6]: ~2 nM; EC50 (read off the curve) [7]: ~10 nM; EC50 (read off the curve) [8]: ~30 nM; Ki67 (Human) EC50 [nM], CD4^+ T cells [9]: 13.2 nM; Ki67 (Human) EC50 [nM], CD8^+ T cells [9]: 5.17 nM; Ki67 (Human) EC50 [nM], NK cells [9]: 7.34 nM; Ki67 (Human) EC50 [nM], T-regs [9]: 0.81 nM; EC50 (read off the curve) [12]: ~2 nM
B2 | 44.6 | 13.2 | 24 | 9.36 | 4.29 | 3.13 | 23.9 | 14.6 | 36.5 | 
